{
  "source": "paper PMC10500825",
  "about": "“TGFβ1-RCN3-TGFBR1 loop facilitates pulmonary fibrosis by orchestrating fibroblast activation” (Respiratory Research, 2023)",
  "binders": {"B1": {"name": "recombinant human Rcn3 with his-tag (natural protein, UniProt Q96D15 21-328, looked up)", "chain": "KPSPDAGPHGQGRVHQAAPLSDAPHDDAHGNFQYDHEAFLGREVAKEFDQLTPEESQARLGRIVDRMDRAGDGDGWVSLAELRAWIAHTQQRHIRDSVSAAWDTYDTDRDGRVGWEELRNATYGHYAPGEEFHDVEDAETYKKMLARDERRFRVADQDGDSMATREELTAFLHPEEFPHMRDIVIAETLEDLDRNKDGYVQVEEYIADLYSAEPGEEEPAWVQTERQQFRDFRDLNKDGHLDGSEVGHWVLPPAQDQPLVEANHLLHESDTDKDGRLSKAEILGNWNMFVGSQATNYGEDLTRHHDEL", "notes": "Reticulocalbin 3 (RCN3), human recombinant protein, Abcam ab276552; Construct limits are those of the vendor's product; also called rhRcn3; hrRcn3; source: bought: Abcam (ab276552)"}},
  "molecular_target": "T1, recombinant human EZH2 protein, biotinylated (human, UniProt Q15910 1-746, biotin (Biotinylation Kit, Thermo Scientific 21329))",
  "T1 construct": "Enhancer of zeste homolog 2 (EZH2), human recombinant protein, Origene TP302054; check the vendor's sheet; also called rhEZH2; source: bought: Origene (TP302054), biotinylated and desalted",
  "T1 sequence (Q15910 whole entry)": "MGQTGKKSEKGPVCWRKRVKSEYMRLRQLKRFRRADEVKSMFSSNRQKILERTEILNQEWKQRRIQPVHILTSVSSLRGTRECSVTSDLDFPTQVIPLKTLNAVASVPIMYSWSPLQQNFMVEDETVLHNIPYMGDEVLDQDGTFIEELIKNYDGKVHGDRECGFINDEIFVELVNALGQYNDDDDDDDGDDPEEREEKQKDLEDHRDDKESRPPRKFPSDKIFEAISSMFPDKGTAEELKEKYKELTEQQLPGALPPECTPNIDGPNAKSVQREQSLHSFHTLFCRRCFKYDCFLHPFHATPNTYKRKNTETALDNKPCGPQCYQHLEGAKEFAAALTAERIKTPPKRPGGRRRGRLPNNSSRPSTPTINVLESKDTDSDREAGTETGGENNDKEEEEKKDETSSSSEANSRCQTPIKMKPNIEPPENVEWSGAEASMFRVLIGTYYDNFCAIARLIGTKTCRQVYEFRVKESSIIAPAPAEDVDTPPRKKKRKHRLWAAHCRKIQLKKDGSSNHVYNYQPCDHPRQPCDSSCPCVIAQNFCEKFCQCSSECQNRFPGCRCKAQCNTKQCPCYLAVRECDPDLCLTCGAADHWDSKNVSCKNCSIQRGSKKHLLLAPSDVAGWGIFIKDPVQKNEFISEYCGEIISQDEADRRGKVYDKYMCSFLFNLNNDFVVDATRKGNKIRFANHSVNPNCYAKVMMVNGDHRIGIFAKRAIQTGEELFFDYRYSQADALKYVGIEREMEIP",
  "assay": "BLI; OctetRED; his-tagged rhRcn3 (5 µg/ml) immobilised on NTA biosensors; biotinylated rhEZH2 at 262.3, 131.1, 65.56 and 32.78 µg/ml in binding buffer; association and dissociation for 10 min at 25 °C",
  "conditions": "both partners purified",
  "data": [
    {"binder": "B1", "values": [
      {"measurement": "Kd", "value": 1540, "unit": "nM"}
    ]}
  ]
}
